# T1: BCMA antigen (UniProt Q02223 1-54, limits assumed)
# T1 construct: also called wild type BCMA
# T1 sequence (looked up): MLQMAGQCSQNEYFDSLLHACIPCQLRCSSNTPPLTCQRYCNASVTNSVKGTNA
# Target: T1, BCMA antigen
# Assay: SPR (Biacore T200), IgG captured on a protein A chip, huBCMA as analyte, 1:1 Binding model, 25 C
# Procedure: (§1) To test the affinity of BCMA F6G variants their binding domains were expressed as IgGs and captured to a protein A chip. BCMA antigen was flowed over the chip at […] concentrations. Experiment was run on Biacore T200. […] The CARs were expressed as IgGs and captured to a protein A chip. BCMA antigen was flowed over the chip at […]. concentrations. Experiment was run on Biacore T200.
Molecule,Kd,koff,kon
Bb2121 huIgG1 (antibody),1.67 nM,0.00484 s⁻¹,2.89e+06 M⁻¹ s⁻¹
"F6Gvar2 (antibody, V domains shown) VH: QVQLVQSGAEVKKPGASVKVSCKASGYTFTGYYMQWVRQAPGQGLEWMGWMNPISGNTGYAQKFQGRVTMTRNTSISTAYMELSSLRSEDTAVYYCARAQWEPLDYWGQGTLVTVSS VL: SYELTQPPSVSVSPGQTARITCSGDALPKKYTYWYQQKSGQAPVLVIYYDTKRPSGIPERFSGSSSGTMATLTISGAQVEDEADYYCLSTHPAGQESVFGGGTKLTVLG",2.35 nM,0.000325 s⁻¹,138000 M⁻¹ s⁻¹
"F6G huIgG1 (antibody, V domains shown, also called germline F6G expressed as human IgG1) VH: QVQLVQSGAEVKKPGASVKVSCKASGYTFTGYYMHWVRQAPGQGLEWMGWMNPNSGNTGYAQKFQGRVTMTRNTSISTAYMELSSLRSEDTAVYYCARAQWEPLDYWGQGTLVTVSS VL: SYELTQPPSVSVSPGQTARITCSGDALPKKYTYWYQQKSGQAPVLVIYEDTKRPSGIPERFSGSSSGTMATLTISGAQVEDEADYYCLSTDPTGQESVFGGGTKLTVLG",97.8 nM,0.0197 s⁻¹,201000 M⁻¹ s⁻¹
"F6Gvar3 (antibody, V domains shown) VH: QVQLVQSGAEVKKPGASVKVSCKASGYTFTGYYMQWVRQAPGQGLEWMGWMNPISGNTGYAQKFQGRVTMTRNTSISTAYMELSSLRSEDTAVYYCARAQWEPLDYWGQGTLVTVSS VL: SYELTQPPSVSVSPGQTARITCSGDALPKKYTYWYQQKSGQAPVLVIYYDTKRPSGIPERFSGSSSGTMATLTISGAQVEDEADYYCLSTNPTGHESVFGGGTKLTVLG",2.12 nM,0.000317 s⁻¹,150000 M⁻¹ s⁻¹

# Target: T1, BCMA antigen
# Assay: flow cytometry, iNKT cells transiently transfected with BCMA CAR-RFP mRNA and stained with soluble BCMA-APC, two donors
# Procedure: INKT cells from two donors were transiently transfected with F6G variants and anti-BCMA-CAR iNKT cell-mediated killing of tumor cells were tested. Flow cytometry analysis of RFP expression to show CAR expression and antigen binding with BCMA-APC in BCMA-CAR iNKTs (FIGS. 13A-13C). The level of BCMA expression on each tumor cell line was assessed by flow cytometry where left peak show isotype staining and right peak show BCMA expression (FIG. 13D). iNKT cells expressing anti-BCMA CAR (as shown in FIG. 13A) were co-cultured with tumor cell lines endogenously expressing BCMA or K562 for 24 hrs at 3 different effector-to-target ratios. After 24 hr co-coculture, cytotoxicity assay was analyzed by flow cytometry for percentage of dead target cells (FIG. 13E), percentage of CD69/CD25 co-expressing iNKT cells (FIG. 13F) and percentage of 4-1BB expressing iNKT cells (FIG. 13G).
row,Molecule,binding result
1,"F6G-Var1 (other, also called F6G-Var1 CAR on iNKT cells (transient, CAR-RFP mRNA)) CAR polypeptide: QVQLVQSGAEVKKPGASVKVSCKASGYTFTGYYMHWVRQAPGQGLEWMGWMNPNSGNTGYAQKFQGRVTMTRNTSISTAYMELSSLRSEDTAVYYCARAQWEPLDYWGQGTLVTVSSGGGGSGGGGSGGGASSYELTQPPSVSVSPGQTARITCSGDALPKKYTYWYQQKSGQAPVLVIYYDTKRPSGIPERFSGSSSGTMATLTISGAQVEDEADYYCLSTDPTGQESVFGGGTKLTVLGQPAAATTTPAPRPPTPAPTIASQPLSLRPEACRPAAGGAVHTRGLDFACDIYIWAPLAGTCGVLLLSLVITLYCKRGRKKLLYIFKQPFMRPVQTTQEEDGCSCRFPEEEEGGCELRVKFSRSADAPAYQQGQNQLYNELNLGRREEYDVLDKRRGRDPEMGGKPRRKNPQEGLYNELQKDKMAEAYSEIGMKGERRRGKGHDGLYQGLSTATKDTYDALHMQALPPR",binds
2,"F6G (other, also called F6G CAR on iNKT cells (transient, CAR-RFP mRNA)) CAR polypeptide: QVQLVQSGAEVKKPGASVKVSCKASGYTFTGYYMHWVRQAPGQGLEWMGWMNPNSGNTGYAQKFQGRVTMTRNTSISTAYMELSSLRSEDTAVYYCARAQWEPLDYWGQGTLVTVSSGGGGSGGGGSGGGASSYELTQPPSVSVSPGQTARITCSGDALPKKYTYWYQQKSGQAPVLVIYEDTKRPSGIPERFSGSSSGTMATLTISGAQVEDEADYYCLSTDPTGQESVFGGGTKLTVLGQPAAATTTPAPRPPTPAPTIASQPLSLRPEACRPAAGGAVHTRGLDFACDIYIWAPLAGTCGVLLLSLVITLYCKRGRKKLLYIFKQPFMRPVQTTQEEDGCSCRFPEEEEGGCELRVKFSRSADAPAYQQGQNQLYNELNLGRREEYDVLDKRRGRDPEMGGKPRRKNPQEGLYNELQKDKMAEAYSEIGMKGERRRGKGHDGLYQGLSTATKDTYDALHMQALPPR",binds
3,"F6G-Var3 (other, also called F6G-Var3 CAR on iNKT cells (transient, CAR-RFP mRNA)) CAR polypeptide: QVQLVQSGAEVKKPGASVKVSCKASGYTFTGYYMQWVRQAPGQGLEWMGWMNPISGNTGYAQKFQGRVTMTRNTSISTAYMELSSLRSEDTAVYYCARAQWEPLDYWGQGTLVTVSSGGGGSGGGGSGGGASSYELTQPPSVSVSPGQTARITCSGDALPKKYTYWYQQKSGQAPVLVIYYDTKRPSGIPERFSGSSSGTMATLTISGAQVEDEADYYCLSTNPTGHESVFGGGTKLTVLGQPAAATTTPAPRPPTPAPTIASQPLSLRPEACRPAAGGAVHTRGLDFACDIYIWAPLAGTCGVLLLSLVITLYCKRGRKKLLYIFKQPFMRPVQTTQEEDGCSCRFPEEEEGGCELRVKFSRSADAPAYQQGQNQLYNELNLGRREEYDVLDKRRGRDPEMGGKPRRKNPQEGLYNELQKDKMAEAYSEIGMKGERRRGKGHDGLYQGLSTATKDTYDALHMQALPPR",binds
4,"F6G-Var4 (other, also called F6G-Var4 CAR on iNKT cells (transient, CAR-RFP mRNA)) CAR polypeptide: QVQLVQSGAEVKKPGASVKVSCKASGYTFTGYYMHWVRQAPGQGLEWMGWMNPNSGNTGYAQKFQGRVTMTRNTSISTAYMELSSLRSEDTAVYYCARAQWEPLDYWGQGTLVTVSSGGGGSGGGGSGGGASSYELTQPPSVSVSPGQTARITCSGDALPKKYTYWYQQKSGQAPVLVIYYDTKRPSGIPERFSGSSSGTMATLTISGAQVEDEADYYCLSTHPAGQESVFGGGTKLTVLGQPAAATTTPAPRPPTPAPTIASQPLSLRPEACRPAAGGAVHTRGLDFACDIYIWAPLAGTCGVLLLSLVITLYCKRGRKKLLYIFKQPFMRPVQTTQEEDGCSCRFPEEEEGGCELRVKFSRSADAPAYQQGQNQLYNELNLGRREEYDVLDKRRGRDPEMGGKPRRKNPQEGLYNELQKDKMAEAYSEIGMKGERRRGKGHDGLYQGLSTATKDTYDALHMQALPPR",binds
5,"F6G-Var5 (other, also called F6G-Var5 CAR on iNKT cells (transient, CAR-RFP mRNA)) CAR polypeptide: QVQLVQSGAEVKKPGASVKVSCKASGYTFTGYYMHWVRQAPGQGLEWMGWMNPNSGNTGYAQKFQGRVTMTRNTSISTAYMELSSLRSEDTAVYYCARAQWEPLDYWGQGTLVTVSSGGGGSGGGGSGGGASSYELTQPPSVSVSPGQTARITCSGDALPKKYTYWYQQKSGQAPVLVIYYDTKRPSGIPERFSGSSSGTMATLTISGAQVEDEADYYCLSTNPTGHESVFGGGTKLTVLGQPAAATTTPAPRPPTPAPTIASQPLSLRPEACRPAAGGAVHTRGLDFACDIYIWAPLAGTCGVLLLSLVITLYCKRGRKKLLYIFKQPFMRPVQTTQEEDGCSCRFPEEEEGGCELRVKFSRSADAPAYQQGQNQLYNELNLGRREEYDVLDKRRGRDPEMGGKPRRKNPQEGLYNELQKDKMAEAYSEIGMKGERRRGKGHDGLYQGLSTATKDTYDALHMQALPPR",binds
6,"F6G-Var6 (other, also called F6G-Var6 CAR on iNKT cells (transient, CAR-RFP mRNA)) CAR polypeptide: QVQLVQSGAEVKKPGASVKVSCKASGYTFTEYYMKWVRQAPGQGLEWMGWMNPNTGKTGYAQKFQGRVTMTRNTSISTAYMELSSLRSEDTAVYYCARAQWEPLDYWGQGTLVTVSSGGGGSGGGGSGGGASSYELTQPPSVSVSPGQTARITCSGDALPKKYTYWYQQKSGQAPVLVIYYDTKRPSGIPERFSGSSSGTMATLTISGAQVEDEADYYCLSTDPTGQESVFGGGTKLTVLGQPAAATTTPAPRPPTPAPTIASQPLSLRPEACRPAAGGAVHTRGLDFACDIYIWAPLAGTCGVLLLSLVITLYCKRGRKKLLYIFKQPFMRPVQTTQEEDGCSCRFPEEEEGGCELRVKFSRSADAPAYQQGQNQLYNELNLGRREEYDVLDKRRGRDPEMGGKPRRKNPQEGLYNELQKDKMAEAYSEIGMKGERRRGKGHDGLYQGLSTATKDTYDALHMQALPPR",binds

# Target: T1, BCMA antigen
# Assay: SPR (Biacore T200), IgG captured on a protein A chip, huBCMA as analyte, 1:1 Binding model, 25 C; same panel as in FIG. 11
# Procedure: as §1
Molecule,Kd,koff,kon
"F6Gvar2 (antibody, V domains shown) VH: QVQLVQSGAEVKKPGASVKVSCKASGYTFTGYYMQWVRQAPGQGLEWMGWMNPISGNTGYAQKFQGRVTMTRNTSISTAYMELSSLRSEDTAVYYCARAQWEPLDYWGQGTLVTVSS VL: SYELTQPPSVSVSPGQTARITCSGDALPKKYTYWYQQKSGQAPVLVIYYDTKRPSGIPERFSGSSSGTMATLTISGAQVEDEADYYCLSTHPAGQESVFGGGTKLTVLG",2.35 nM,0.000325 s⁻¹,138000 M⁻¹ s⁻¹
